The target in one data set is Mouse FOLR1 (Mus musculus, UniProt P35846). Briefly: ELISA species specificity of antibodies. The settings on record: coated antigen mouse FOLR1. Format: binding. As to the method:
(§1) Each antigen was diluted to 1 μg/mL with PBS and added to a microplate (manufacturer: Corning, Catalog No.: 42592) in a volume of 100 μL per well, and the microplate was coated overnight in a refrigerator (2-8° C.). The coating solution was discarded, and 200 μL of a blocking solution (containing 5% skimmed milk powder, prepared from PBS) was added. The microplate was left to stand in an electric thermostatic incubator at 37° C. for 2 h. The blocking solution was discarded, and the microplate was washed 3 times with 0.05% PBST. Antibody dilutions at different concentrations (at an initial concentration of 6 μg/mL, 3-fold dilution, 8 concentration gradients in total, diluted with PBS) were added at 100 μL per well. The microplate was left to stand in the electric thermostatic incubator at 37° C. for 2 h. The antibody dilutions were discarded, and the microplate was washed 8 times with 0.05% PBST and patted dry. Anti-Human Kappa Light Chains (Bound and Free) peroxidase antibody Produced in goat (manufacturer: sigma, Catalog No.: A7164-1ML) diluted in a 1:10000 ratio was added at 100 µL/well. The microplate was left to stand in the electric thermostatic incubator at 37° C. for 1 h. […] The microplate was read on SpectraMax Plus Absorbance Microplate Reader with an absorption light wavelength of 450 nm.

The target in the next data set is Rat FOLR1 (Rattus norvegicus, UniProt Q9JL02). Nature of the data set: ELISA species specificity of antibodies. Format: binding. The settings on record: coated antigen rat FOLR1. As for the experimental part:
as §1

The conditions of data set [1]: Exatecan in plasma, 0.25 mg/kg iv infusion 30 min. As for the experimental part:
24 common cynomolgus monkeys aged 3-5 years (half male and half female) were adopted and randomly divided into 4 groups, and each group consisted of 3 female animals and 3 male animals. […] Blood samples were collected until 504 hours after the end of the administration. The major pharmacokinetic parameters, i.e., AUC(0-t), AUC(0-∞), T1/2, Cmax, Tmax, CL, MRT, etc., were calculated from the plasma concentration data with a non-compartmental model using Phoenix WinNonlin® 7.0 software.

Data set [2] deals with T1, folate receptor α (FRα) on FRα-positive cells (JEG-3, MCF-7) (UniProt P15328 25-234, limits assumed).
T1 construct: whole, on cells; also called JEG-3 cells; JEG3 cells
Nature of the data set: flow cytometry on JEG-3 cells. (In general: Flow cytometry measures light scatter and fluorescence of single cells or particles in a stream.)

Data set [3] deals with T2, Mouse FOLR1 (manufacturer: Acro, Catalog No.: F01-M5225) (mouse, UniProt P35846 25-232).
T2 construct: Bought reagent
Briefly: ELISA, antigen coated at 1 µg/mL. As to the method: (§2) Each antigen was diluted to 1 μg/mL with PBS and added to a microplate (manufacturer: Corning, Catalog No.: 42592) in a volume of 100 μL per well, and the microplate was coated overnight in a refrigerator (2-8° C.). The coating solution was discarded, and 200 μL of a blocking solution (containing 5% skimmed milk powder, prepared from PBS) was added. The microplate was left to stand in an electric thermostatic incubator at 37° C. for 2 h. The blocking solution was discarded, and the microplate was washed 3 times with 0.05% PBST. Antibody dilutions at different concentrations (at an initial concentration of 6 μg/mL, 3-fold dilution, 8 concentration gradients in total, diluted with PBS) were added at 100 μL per well. The microplate was left to stand in the electric thermostatic incubator at 37° C. for 2 h. The antibody dilutions were discarded, and the microplate was washed 8 times with 0.05% PBST and patted dry. Anti-Human Kappa Light Chains (Bound and Free) peroxidase antibody Produced in goat (manufacturer: sigma, Catalog No.: A7164-1ML) diluted in a 1:10000 ratio was added at 100 µL/well. The microplate was left to stand in the electric thermostatic incubator at 37° C. for 1 h. The antibody dilutions were discarded, and the microplate was washed 8 times with 0.05% PBST and patted dry. Single-component TMB substrate solution I (manufacturer: Huzhou InnoReagents Co., Ltd.; Catalog No.: TMB-S-001) was added at 100 μL/well, and the microplate was left to stand in the electric thermostatic incubator at 37° C. for 10 min in the dark. 0.1 M H₂SO₄ was added at 100 μL/well to terminate the reaction.
(In general: In an ELISA, binding on a coated surface is turned into a signal by an enzyme label.)

For data set [4], the target named is T3, Rat FOLR1 (manufacturer: sino Biological, Catalog No.: 81073-R08NO0507) (rat, UniProt G3V8M6 25-232).
T3 construct: Bought reagent
Briefly: ELISA, antigen coated at 1 µg/mL. As for the experimental part:
as §2

Data set [5] deals with T4, antigen FRα-His (human FRα extracellular domain with C-terminal 8×HIS tag) (human, UniProt P15328 25-233).
T4 construct: The entry still carries the N-terminal signal peptide; Expressed in CHO-K1 cells; also called FOLR1
Nature of the data set: ELISA, antigen coated at 1 µg/mL, antibody titrated. As for the experimental part:
as §2

For data set [6], the target named is T5, Cynomolgus monkey FOLR1 (manufacturer: Acro, Catalog No.: F01-C52H8) (cynomolgus monkey, UniProt A0A2K5U044 25-233).
T5 construct: Bought reagent
The description is as above. As for the experimental part: as §2

The target of data set [7] is T6, FOLR2 (purchased from Acro, Catalog No. FO2-H5223) (UniProt P14207 17-228).
T6 construct: Bought reagent; also called folate receptor β
Briefly: SPR (Biacore T200), antibody captured on Protein A chip, antigen as analyte. As to the method:
(§3) A Protein A chip was used for the assay.
(§4) Experiment results were analyzed using data analysis software Evaluation Software 3.1. The sensing signals acquired from the experimental flow channels for the samples were subjected to double subtraction (minus values of reference flow channels and blank control), and the fitting was performed using a “1:1” kinetic model to obtain the kinetic parameters (Ka: association rate; Kd: dissociation rate; KD: equilibrium dissociation constant) for the binding of each sample to the antigens.
(Surface plasmon resonance follows binding to a sensor surface in real time, without labels.)

The target of data set [8] is T7, FOLR3 (purchased from R&D, Catalog No. 5319-FR-050) (UniProt P41439 23-245, limits assumed).
T7 construct: Bought reagent; also called folate receptor γ
The data set is described as above. As to the method: as §3, §4

The target in data set [9] is T4, antigen FRα-His (human FRα …). Nature of the data set: SPR (Biacore T200), drug captured on Protein A chip, FRα-His as analyte, 1:1 model. As to the method: as §3, §4
For data set [10] the target is unchanged. Briefly: SPR (Biacore T200), antibody captured on Protein A chip, antigen as analyte, 1:1 model; Table 7 experiment (antigen specificity, FOLR1/FOLR2/FOLR3). As for the experimental part:
as §3, §4

For data set [11] the target is unchanged. Nature of the data set: SPR (Biacore T200), antibody captured on Protein A chip, antigen as analyte, 1:1 model. As to the method:
as §3, §4

This is an account of results in US20250059274A1, “ANTI-FRa ANTIBODY, AND ANTIBODY-DRUG CONJUGATE AND USE THEREOF” (Bio-Thera Solutions, Ltd., priority 2021, published 2025).

Read-outs that look alike come from different tables or passages of the source.

T4 sequence (P15328 other isoform, or with tags, fused parts or gaps limits assumed): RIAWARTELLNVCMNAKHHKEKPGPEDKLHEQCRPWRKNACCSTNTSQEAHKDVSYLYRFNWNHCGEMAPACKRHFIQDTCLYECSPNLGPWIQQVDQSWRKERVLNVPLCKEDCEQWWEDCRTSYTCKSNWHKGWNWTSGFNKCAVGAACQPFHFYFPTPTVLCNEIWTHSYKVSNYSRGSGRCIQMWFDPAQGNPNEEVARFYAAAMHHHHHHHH
T7 sequence (P41439 23-245 limits assumed): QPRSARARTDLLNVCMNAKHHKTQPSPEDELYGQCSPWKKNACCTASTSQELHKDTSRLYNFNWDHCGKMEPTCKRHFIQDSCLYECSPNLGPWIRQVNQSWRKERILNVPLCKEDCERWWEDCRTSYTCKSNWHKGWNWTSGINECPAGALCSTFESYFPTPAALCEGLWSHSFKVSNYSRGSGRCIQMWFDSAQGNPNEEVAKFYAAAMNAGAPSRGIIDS
T6 sequence (P14207 17-228 limits assumed): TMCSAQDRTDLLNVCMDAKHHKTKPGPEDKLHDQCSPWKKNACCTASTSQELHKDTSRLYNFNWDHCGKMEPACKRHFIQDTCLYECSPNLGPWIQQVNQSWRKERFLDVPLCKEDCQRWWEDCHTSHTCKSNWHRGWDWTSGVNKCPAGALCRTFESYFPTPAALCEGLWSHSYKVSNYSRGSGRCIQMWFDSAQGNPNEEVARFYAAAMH
T5 sequence (A0A2K5U044 entry or part of it): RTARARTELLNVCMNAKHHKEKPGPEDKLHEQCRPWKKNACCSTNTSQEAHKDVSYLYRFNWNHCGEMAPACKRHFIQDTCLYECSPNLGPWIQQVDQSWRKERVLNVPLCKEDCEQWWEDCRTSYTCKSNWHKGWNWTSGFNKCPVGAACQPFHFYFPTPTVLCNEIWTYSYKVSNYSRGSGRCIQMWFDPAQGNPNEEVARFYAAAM
T2 sequence (P35846 25-232 limits assumed): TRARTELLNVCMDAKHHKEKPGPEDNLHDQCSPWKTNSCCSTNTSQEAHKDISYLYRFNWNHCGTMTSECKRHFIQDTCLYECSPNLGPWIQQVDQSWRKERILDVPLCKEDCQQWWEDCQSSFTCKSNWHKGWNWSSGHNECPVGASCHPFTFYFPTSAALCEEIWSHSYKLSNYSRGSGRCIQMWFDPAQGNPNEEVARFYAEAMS
T3 sequence (G3V8M6 entry or part of it limits assumed): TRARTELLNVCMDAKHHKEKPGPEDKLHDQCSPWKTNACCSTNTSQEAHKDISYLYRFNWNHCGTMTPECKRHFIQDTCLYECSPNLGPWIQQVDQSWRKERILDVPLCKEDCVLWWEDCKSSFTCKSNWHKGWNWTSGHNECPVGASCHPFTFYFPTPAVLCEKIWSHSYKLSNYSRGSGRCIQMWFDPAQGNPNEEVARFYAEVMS
Rat FOLR1, sequence (Q9JL02 20-255): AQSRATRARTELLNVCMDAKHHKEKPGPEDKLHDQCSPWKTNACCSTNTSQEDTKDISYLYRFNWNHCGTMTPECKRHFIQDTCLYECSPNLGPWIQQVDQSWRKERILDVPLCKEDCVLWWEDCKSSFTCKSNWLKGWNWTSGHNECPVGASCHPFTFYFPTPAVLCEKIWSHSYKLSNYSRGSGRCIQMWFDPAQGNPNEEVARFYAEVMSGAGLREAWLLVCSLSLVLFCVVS
T1 sequence (P15328 25-234 limits assumed): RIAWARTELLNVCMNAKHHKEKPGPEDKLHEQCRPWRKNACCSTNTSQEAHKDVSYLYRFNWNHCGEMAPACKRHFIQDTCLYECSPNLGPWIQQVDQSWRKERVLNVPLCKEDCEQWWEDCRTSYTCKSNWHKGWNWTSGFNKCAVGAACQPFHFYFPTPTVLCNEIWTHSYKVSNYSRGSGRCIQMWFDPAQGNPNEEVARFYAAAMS
Mouse FOLR1, sequence (P35846 25-232): as the sequence (P35846 25-232 limits assumed) above

The EC50 is the concentration needed to bring the measured effect to its halfway point. Take “huMOV19: control antibody huMOV19, heavy chain SEQ ID NO: 34, light chain SEQ ID NO: 35”: the EC50 entry with Mouse FOLR1 and with Rat FOLR1 was “— (“—” indicates no binding)” throughout.
What is called AUC(0-t) is the area under the concentration-time curve up to a stated or last time point. Usually Cmax stands for the peak of the concentration-time curve. Broadly, the Tmax is the time at which the peak concentration occurs. As to “(1S,9S)-1-amino-9-ethyl-5-fluoro-9-hydroxy-4-methyl-1,2,3,9,12,15-hexahydro-10H,13H-benzo[3′,4′:6,7]indoline[1,2-b]quinoline-10,13-dione methanesulfonate [Exatecan Mesylate]”, in data set [1] (female), the “AUC(0-t)” value was 155.05 ng·h/mL, the Cmax came to 237.567 ng/mL and the Tmax was 30 min. Moreover, in data set [1] (male), the “AUC(0-t)” value amounted to 231.77 ng·h/mL, the Cmax was found to be 349.808 ng/mL and the Tmax worked out at 30 min.

B1: Antibody 1 (humanized anti-FRα antibody) (antibody, human IgG1, kappa, V domains shown)
VH: QVQLVQSGVEVKKPGASVKVSCKASGYSFTGYFMNWVRQAPGQGLEWIGRIHPYDGDTFYNQNFKDKATLTVDKSTTTAYMELKSLQFDDTAVYYCTRYDGSRAMDYWGQGTTVTVSS
VL: EIVLTQSPATLSLSPGERATLSCKASQSVSFAGTSLMHWYQQKPGQAPRLLIYRASNLEAGVPARFSGSGSKTDFTLTISSLEPEDFAVYYCQQSREYPYTFGGGTKVEIKR
notes: also called anti-FRα antibody No. 1
By Kd is commonly meant the constant that tells how readily two partners part at equilibrium. The term koff denotes the rate constant with which the complex falls apart. In general, kon refers to the rate constant with which the complex forms. For the molecule B1, the EC50 in [2] was determined as 1.41 nM; in data set [5], 0.069 µg/mL; in [6], 0.066 µg/mL. Further, the binding result in [3] is reported as “no binding (tested: antibody up to 6 µg/mL)”; in [4], “no binding (tested: antibody up to 6 µg/mL)”; in data set [7], “no binding (tested: antigen up to 100 nM)”; in data set [8], “no binding (tested: antigen up to 100 nM)”. The Kd in data set [9] is 0.287 nM; in [10] it was 0.703 nM. In addition, the koff in data set [9] amounted to 0.000293 s⁻¹. Besides, the kon in data set [9] worked out at 1.02e+06 M⁻¹ s⁻¹.

B2: control antibody huMOV19 (antibody, human IgG1, kappa, V domains shown)
VH: QVQLVQSGAEVVKPGASVKISCKASGYTFTGYFMNWVKQSPGQSLEWIGRIHPYDGDTFYNQKFQGKATLTVDKSSNTAHMELLSLTSEDFAVYYCTRYDGSRAMDYWGQGTTVTVSS
VL: DIVLTQSPLSLAVSLGQPAIISCKASQSVSFAGTSLMHWYHQKPGQQPRLLIYRASNLEAGVPDRFSGSGSKTDFTLTISPVEAEDAATYYCQQSREYPYTFGGGTKLEIKR
As for B2, the binding result in data set [3] is “no binding (tested: antibody up to 6 µg/mL)”; in data set [4], “no binding (tested: antibody up to 6 µg/mL)”; in data set [7], “no binding (tested: antigen up to 100 nM)”; in [8], “no binding (tested: antigen up to 100 nM)”. The values for the EC50 in data set [5] and in data set [6] were 0.09 µg/mL and 0.087 µg/mL, respectively. The Kd in [11] is 0.468 nM.
